# Measured values as given in patent publication US20150203577A1 (Chugai, published 2015).
# Numbering of substitutions follows the chain as printed.
# T1: mouse FcγRIII extracellular domain, C-terminal His tag (mouse, UniProt P08508 31-215)
# T1 construct: also called mFcγRIII; mFcgRIII
# T1 chain: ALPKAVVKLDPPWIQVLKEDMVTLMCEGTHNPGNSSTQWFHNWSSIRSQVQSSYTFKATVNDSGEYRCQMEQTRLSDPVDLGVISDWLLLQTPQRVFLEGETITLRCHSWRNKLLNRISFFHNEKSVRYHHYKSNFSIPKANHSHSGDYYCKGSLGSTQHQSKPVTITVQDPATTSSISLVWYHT
# T2: mouse FcγRII extracellular domain, C-terminal His tag (mouse, UniProt P08101 30-210)
# T2 construct: also called mFcγRII; mFcgRII
# T2 sequence: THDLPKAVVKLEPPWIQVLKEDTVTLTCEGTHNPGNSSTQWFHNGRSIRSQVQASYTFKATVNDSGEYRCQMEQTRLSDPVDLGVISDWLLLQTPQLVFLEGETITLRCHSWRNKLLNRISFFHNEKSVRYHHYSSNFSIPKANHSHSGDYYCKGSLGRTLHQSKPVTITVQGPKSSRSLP
# T3: mouse FcγRII extracellular domain with C-terminal His tag (mouse, UniProt P08101 30-210)
# T3 construct: Made on the basis of NCBI NP-034317.1; also called mFcγRII; mFcgRII
# T3 sequence: T2 sequence
# T4: mouse FcγRIII extracellular domain with C-terminal His tag (mouse, UniProt P08508 31-215)
# T4 construct: Made on the basis of NCBI NP-034318.2; also called mFcγRIII; mFcgRIII
# T4 chain: T1 chain
# B1: H237-MB848/MRAL-k0 (antibody, mouse IgG1, kappa)
# heavy: QVQLQESGPGLVKPSETLSLTCAVSGHSISHDHAWSWVRQPPGEGLEWIGFISYSGITNYNPSLQGRVTISRDNSKNTLYLQMNSLRAEDTAVYYCARSLARTTAMDYWGEGTLVTVSSAKTTPPSVYPLAPGSAAQTNSMVTLGCLVKGYFPEPVTVTWNSGSLSSGVHTFPAVLQSDLYTLSSSVTVPSSTWPSETVTCNVAHPASSTKVDKKIVPRDCGCKPCICEPNEVELVFIFPPKPKDVLTITLTPKVTCVVVDISKDDPEVQFSWFVDDVEVHTAQTQPREEQFNSTFRSVSELPIMHQDWLNGKEFKCRVDSDGFPAPIEKTISKTKGRPKAPQVYTIPPPKEQMAKDKVSLTCMITDFFPEDITVEWQWNGQPAENYKNTQPIMDTDGSYFVYSKLNVQKSNWEAGNTFTCSVLHEGLHNHHTEKSLSHSPGK
# light: not shown
# notes: copies: 2 + 2
# B2: H237-MB870/MRAL-k0 (antibody, mouse IgG1, kappa)
# heavy: B1 heavy with L235I, K264D, D320N, K330R
# light: not shown
# notes: copies: 2 + 2
# B3: H237-MB856/MRAL-k0 (antibody, mouse IgG1, kappa)
# heavy: B1 heavy with P327Y
# light: not shown
# notes: copies: 2 + 2
# B4: H237-MB877/MRAL-k0 (antibody, mouse IgG1, kappa)
# heavy: B1 heavy with L235I, K264D, K330R
# light: not shown
# notes: copies: 2 + 2
# B5: H237-MB852/MRAL-k0 (antibody, mouse IgG1, kappa)
# heavy: B1 heavy with Q291L
# light: not shown
# notes: copies: 2 + 2
# B6: H237-MB859/MRAL-k0 (antibody, mouse IgG1, kappa)
# heavy: B1 heavy with D320N, P327Y, K330R
# light: not shown
# notes: copies: 2 + 2
# B7: H237-MB850/MRAL-k0 (antibody, mouse IgG1, kappa)
# heavy: B1 heavy with D320N, E329Y
# light: not shown
# notes: copies: 2 + 2
# B8: H237-MB863/MRAL-k0 (antibody, mouse IgG1, kappa)
# heavy: B1 heavy with K264D, D320N, E329Y
# light: not shown
# notes: copies: 2 + 2
# B9: H237-MB849/MRAL-k0 (antibody, mouse IgG1, kappa)
# heavy: B1 heavy with D320N, P327Y
# light: not shown
# notes: copies: 2 + 2
# B10: H237-MB869/MRAL-k0 (antibody, mouse IgG1, kappa)
# heavy: B1 heavy with L235I, K264D, D320N, E329Y
# light: not shown
# notes: copies: 2 + 2
# B11: H237-MB876/MRAL-k0 (antibody, mouse IgG1, kappa)
# heavy: B1 heavy with L235I, K264D, Q291L, D320N, E329Y
# light: not shown
# notes: copies: 2 + 2
# B12: H237-MB868/MRAL-k0 (antibody, mouse IgG1, kappa)
# heavy: B1 heavy with L235I, K264D
# light: not shown
# notes: copies: 2 + 2
# B13: H237-MB867/MRAL-k0 (antibody, mouse IgG1, kappa)
# heavy: B1 heavy with L235I, K264D, D320N
# light: not shown
# notes: copies: 2 + 2
# B14: H237-MB871/MRAL-k0 (antibody, mouse IgG1, kappa)
# heavy: B1 heavy with L235I, K264D, Q291L, D320N
# light: not shown
# notes: copies: 2 + 2
# B15: H237-MB862/MRAL-k0 (antibody, mouse IgG1, kappa)
# heavy: B1 heavy with K264D, D320N, P327Y
# light: not shown
# notes: copies: 2 + 2
# B16: H237-MB860/MRAL-k0 (antibody, mouse IgG1, kappa)
# heavy: B1 heavy with D320N, E329Y, K330R
# light: not shown
# notes: copies: 2 + 2
# B17: H237-MB857/MRAL-k0 (antibody, mouse IgG1, kappa)
# heavy: B1 heavy with E329Y
# light: not shown
# notes: copies: 2 + 2
# B18: H237-MB866/MRAL-k0 (antibody, mouse IgG1, kappa)
# heavy: B1 heavy with L235I, D320N
# light: not shown
# notes: copies: 2 + 2
# B19: H237-MB858/MRAL-k0 (antibody, mouse IgG1, kappa)
# heavy: B1 heavy with K330R
# light: not shown
# notes: copies: 2 + 2
# B20: H237-MB851/MRAL-k0 (antibody, mouse IgG1, kappa)
# heavy: B1 heavy with D320N, K330R
# light: not shown
# notes: copies: 2 + 2
# B21: H237-MB854/MRAL-k0 (antibody, mouse IgG1, kappa)
# heavy: B1 heavy with Q291L, D320N, E329Y
# light: not shown
# notes: copies: 2 + 2
# B22: H237-MB875/MRAL-k0 (antibody, mouse IgG1, kappa)
# heavy: B1 heavy with L235I, K264D, Q291L
# light: not shown
# notes: copies: 2 + 2
# B23: H237-MB318/MRAL-k0 (antibody, mouse IgG1, kappa)
# heavy: B1 heavy with P230V, N231E, L235D, D320N, D322A, G323A
# light: not shown
# notes: copies: 2 + 2
# B24: H237-MB313/MRAL-k0 (antibody, mouse IgG1, kappa)
# heavy: B1 heavy with E229T, P230V, N231E, L235D, D320N, D322A, G323A
# light: not shown
# notes: copies: 2 + 2
# B25: H237-MB302/MRAL-k0 (antibody, mouse IgG1, kappa)
# heavy: B1 heavy with P230V, N231P, L235D, D320N, D322A, G323A
# light: not shown
# notes: copies: 2 + 2
# B26: H237-MB319/MRAL-k0 (antibody, mouse IgG1, kappa)
# heavy: B1 heavy with P230A, N231E, L235D, D320N, D322A, G323A
# light: not shown
# notes: copies: 2 + 2
# B27: H237-MB306/MRAL-k0 (antibody, mouse IgG1, kappa)
# heavy: B1 heavy with E229T, P230A, N231P, L235D, D320N, D322A, G323A
# light: not shown
# notes: copies: 2 + 2
# B28: H237-MB310/MRAL-k0 (antibody, mouse IgG1, kappa)
# heavy: B1 heavy with E229T, P230D, N231P, L235D, D320N, D322A, G323A
# light: not shown
# notes: copies: 2 + 2
# Biological target: T1, mouse FcγRIII extracellular domain, …
# Assay: SPR (Biacore T200), antibody captured on Protein L, mFcγR analyte
Kd,relative mFcγRIII-binding activity (mIgG1 = 1),Binder
308 nM,0.9 fold vs H237-mIgG1/MRAL-k0,B1
269 nM,1 fold vs H237-mIgG1/MRAL-k0,B2
311 nM,0.9 fold vs H237-mIgG1/MRAL-k0,B3
195 nM,1.4 fold vs H237-mIgG1/MRAL-k0,B4
154 nM,1.8 fold vs H237-mIgG1/MRAL-k0,B5
396 nM,0.7 fold vs H237-mIgG1/MRAL-k0,B6
358 nM,0.8 fold vs H237-mIgG1/MRAL-k0,B7
121 nM,2.3 fold vs H237-mIgG1/MRAL-k0,B8
436 nM,0.6 fold vs H237-mIgG1/MRAL-k0,B9
300 nM,0.9 fold vs H237-mIgG1/MRAL-k0,B10
191 nM,1.5 fold vs H237-mIgG1/MRAL-k0,B11
329 nM,0.9 fold vs H237-mIgG1/MRAL-k0,B12
331 nM,0.9 fold vs H237-mIgG1/MRAL-k0,B13
169 nM,1.7 fold vs H237-mIgG1/MRAL-k0,B14
142 nM,2 fold vs H237-mIgG1/MRAL-k0,B15
379 nM,0.7 fold vs H237-mIgG1/MRAL-k0,B16
313 nM,0.9 fold vs H237-mIgG1/MRAL-k0,B17
1570 nM,0.2 fold vs H237-mIgG1/MRAL-k0,B18
223 nM,1.3 fold vs H237-mIgG1/MRAL-k0,B19
295 nM,1 fold vs H237-mIgG1/MRAL-k0,B20
225 nM,1.3 fold vs H237-mIgG1/MRAL-k0,B21
147 nM,1.9 fold vs H237-mIgG1/MRAL-k0,B22

# Biological target: T2, mouse FcγRII extracellular domain, …
# Assay: as above
Kd,relative mFcγRII-binding activity (mIgG1 = 1),Binder
4.58 nM,45.8 fold vs H237-mIgG1/MRAL-k0,B1
5.44 nM,38.6 fold vs H237-mIgG1/MRAL-k0,B2
4.69 nM,44.8 fold vs H237-mIgG1/MRAL-k0,B3
3.8 nM,55.3 fold vs H237-mIgG1/MRAL-k0,B4
3.44 nM,61 fold vs H237-mIgG1/MRAL-k0,B5
6.15 nM,34.2 fold vs H237-mIgG1/MRAL-k0,B6
4.81 nM,43.7 fold vs H237-mIgG1/MRAL-k0,B7
2.58 nM,81.3 fold vs H237-mIgG1/MRAL-k0,B8
6.68 nM,31.4 fold vs H237-mIgG1/MRAL-k0,B9
5.12 nM,41 fold vs H237-mIgG1/MRAL-k0,B10
3.58 nM,58.7 fold vs H237-mIgG1/MRAL-k0,B11
5.73 nM,36.6 fold vs H237-mIgG1/MRAL-k0,B12
5.96 nM,35.2 fold vs H237-mIgG1/MRAL-k0,B13
3.4 nM,61.8 fold vs H237-mIgG1/MRAL-k0,B14
3.09 nM,67.9 fold vs H237-mIgG1/MRAL-k0,B15
5.3 nM,39.6 fold vs H237-mIgG1/MRAL-k0,B16
4.71 nM,44.6 fold vs H237-mIgG1/MRAL-k0,B17
16.2 nM,13 fold vs H237-mIgG1/MRAL-k0,B18
3.39 nM,62 fold vs H237-mIgG1/MRAL-k0,B19
4.79 nM,43.8 fold vs H237-mIgG1/MRAL-k0,B20
4.15 nM,50.6 fold vs H237-mIgG1/MRAL-k0,B21
2.88 nM,72.8 fold vs H237-mIgG1/MRAL-k0,B22

# Biological target: T3, mouse FcγRII extracellular domain with …
# Assay: SPR Biacore T200; KD mFcγRIII / KD mFcγRII
# Method: (§1) Each altered antibody was analyzed for its interaction with each Fcγ receptor prepared above using Biacore T100 (GE Healthcare Japan Corp.), Biacore T200 (GE Healthcare Japan Corp.), Biacore A100, or Biacore 4000. The running buffer used was HBS-EP+ (GE Healthcare Japan Corp.). The assay temperature was set to 25° C. The sensor chips used were chips prepared by immobilizing Protein L (ACTIGEN or BioVision) onto Series S Sensor Chip CM5 (GE Healthcare Japan Corp.) or Series S Sensor Chip CM4 (GE Healthcare Japan Corp.) by the amine coupling method.
# (§2) In order to calculate the KD value of each altered antibody for FcγR, kinetic analysis was conducted according to the following method: first, the antibody of interest was captured onto any of these chips and allowed to interact with mFcγR diluted with a running buffer. For the obtained sensorgram, the assay results were globally fit into the 1:1 Langmuir binding model using Biacore Evaluation Software to calculate an association rate constant ka (L/mol/s) and a dissociation rate constant kd (1/s). From these values, the dissociation constant KD (mol/L) was calculated.
row,relative I/A (mFcγRII selectivity) (mIgG1 = 1),Binder
1,10.5,B23
2,10.1,B24
3,12,B25
4,14.1,B26
5,15.7,B27
6,10.1,B28

# Biological target: T4, mouse FcγRIII extracellular domain with …
# Assay: SPR Biacore T200
# Method: as §1, §2
row,relative mFcγRIII-binding activity (mIgG1 = 1),Binder
1,3.9,B23
2,4,B24
3,4.5,B25
4,3.6,B26
5,4.2,B27
6,3.8,B28

# Biological target: T3, mouse FcγRII extracellular domain with …
# Assay: SPR Biacore T200
# Method: as §1, §2
row,relative mFcγRII-binding activity (mIgG1 = 1),Binder
1,40.5,B23
2,40.1,B24
3,53.7,B25
4,50,B26
5,65.8,B27
6,38.8,B28
